Laboratory results from patent US20240252614A1 (Pfizer, published 2024).

Legend:
hMPV119 = molecular target: T1, hMPV119 (hMPV B, UniProt Q6WB98 19-102); assay: BLI, 63C stress
T1 construct: T49I, T150C-R156C, A459P
Description: (§1) Conformation integrity of hMPV B F protein mutants were evaluated by a thermal stress experiment. Crude cell culture supernatants were normalized based on the results of the titer quantitation and then incubated for 1 hour at room temperature and two higher temperatures. For the testing of hMPV B single mutants, the two temperatures were 53° C. and 56° C. After the incubation, the protein mutants were probed with prefusion specific monoclonal antibody hMPV-2 by OCTET HTX. Anti-Human IgG Fc Capture (AHC) biosensors were first equilibrated in PB before being dipped into more PB for to establish the initial baseline. Biosensors were incubated with hMPV-2 before being equilibrated in PB to establish the experimental baseline. The mAb-bound biosensors were then dipped into the thermal stresses cell culture supernatants for 5 minutes.

hMPV132 = molecular target: T2, hMPV132 (hMPV B, UniProt Q6WB98 19-102); assay: BLI, 63C stress
T2 construct: L141C-A161C, S149T, G239A, T411C-Q434C, A459P
Description: as §1

hMPV140 = molecular target: T3, hMPV140 (hMPV B, UniProt Q6WB98 19-102); assay: BLI, 63C stress
T3 construct: T49I, L141C-A161C, T411C-Q434C, A459P
Description: as §1

hMPV120 = molecular target: T4, hMPV120 (hMPV B, UniProt Q6WB98 19-102); assay: BLI, 63C stress
T4 construct: A140C-S149C, T411C-Q434C
Description: as §1

hMPV126 = molecular target: T5, hMPV126 (hMPV B, UniProt Q6WB98 19-102); assay: BLI, 63C stress
T5 construct: T49I, T150C-R156C, G239A, A459P
Description: as §1

hMPV090 = molecular target: T6, hMPV090 (hMPV A, UniProt Q6WB98 19-102); assay: BLI, 58C stress
T6 construct: T411C-Q434C, L141C-A161C, A459P, G239A, T49I, S149T, T365I
Description: (§2) The OCTET HTX (Sartorius, Gottingen, Germany) instrument was used to evaluate the expression and conformational integrity for each mutant. All measurements were conducted at 30° C. temperature in 96-well black plates (Corning, Corning, NY) with a final volume of 240 μL per well at a constant agitation rate of 1000 RPM.
(§3) Conformation integrity of hMPV A F protein mutants were evaluated by thermal stress experiments. Crude cell culture supernatants were normalized based on the results of the titer quantitation and then incubated for 1 hour at room temperature and two higher temperatures. […] Anti-Human IgG Fc Capture (AHC) biosensors were first equilibrated in PB before being dipped into more PB to establish the initial baseline. […] The mAb-bound biosensors were then dipped into the thermal stressed cell culture supernatants for 5 minutes. The kinetics analysis was done by OCTET data analysis software (version 12.0, Sartorius) based on curve fitting of the entire associate step.

hMPV087 = molecular target: T7, hMPV087 (hMPV A, UniProt Q6WB98 19-102); assay: BLI, 58C stress
T7 construct: T411C-Q434C, L141C-A161C, T365I
Description: as §2, §3

hMPV082 = molecular target: T8, hMPV082 (hMPV A, UniProt Q6WB98 19-102); assay: BLI, 58C stress
T8 construct: T411C-Q434C, A140C-S149C, G239A
Description: as §2, §3

hMPV078 = molecular target: T9, hMPV078 (hMPV A, UniProt Q6WB98 19-102); assay: BLI, 58C stress
T9 construct: T411C-Q434C, A140C-S149C
Description: as §2, §3

hMPV079 = molecular target: T10, hMPV079 (hMPV A, UniProt Q6WB98 19-102); assay: BLI, 58C stress
T10 construct: T411C-Q434C, A140C-S149C, A459P
Description: as §2, §3

hMPV086 = molecular target: T11, hMPV086 (hMPV A, UniProt Q6WB98 19-102); assay: BLI, 58C stress
T11 construct: T411C-Q434C, L141C-A161C, T49I; also called hMP0086
Description: as §2, §3

hMPV088 = molecular target: T12, hMPV088 (hMPV A, UniProt Q6WB98 19-102); assay: BLI, 58C stress
T12 construct: T411C-Q434C, L141C-A161C, G239A
Description: as §2, §3

hMPV097 = molecular target: T13, hMPV097 (hMPV A, UniProt Q6WB98 19-102); assay: BLI, 58C stress
T13 construct: T411C-Q434C, E146C-T160C, A459P, G239A, T49I, S149T, T365I
Description: as §2, §3

hMPV081 = molecular target: T14, hMPV081 (hMPV A, UniProt Q6WB98 19-102); assay: BLI, 58C stress
T14 construct: T411C-Q434C, A140C-S149C, T365I
Description: as §2, §3

hMPV083 = molecular target: T15, hMPV083 (hMPV A, UniProt Q6WB98 19-102); assay: BLI, 58C stress
T15 construct: T411C-Q434C, A140C-S149C, A459P, G239A, T49I, T365I
Description: as §2, §3

hMPV A F WT Control = hMPV A F WT Control (hMPV A, UniProt Q6WB98 19-102); assay: BLI, 58C stress
Description: as §2, §3

hMPV085 = molecular target: T16, hMPV085 (hMPV A, UniProt Q6WB98 19-102); assay: BLI, 58C stress
T16 construct: T411C-Q434C, L141C-A161C, A459P
Description: as §2, §3

hMPV084 = molecular target: T17, hMPV084 (hMPV A, UniProt Q6WB98 19-102); assay: BLI, 58C stress
T17 construct: T411C-Q434C, L141C-A161C
Description: as §2, §3

[1] = molecular target: T18, stabilized hMPV F protein trimer in pre-fusion conformation (human metapneumovirus); assay: SPR (Biacore 8K+), mAb captured on Protein A chip
T18 construct: also called preF-hMPV; hMPV pre-fusion F protein
Excerpt: (§4) To avoid conformation changes of F protein while coupling to SPR sensor chip an orientation-specific binding of antibodies through constant (Fc) region was chosen to determine affinity of the newly discovered antibodies using Biacore 8K+ system (Cytiva) and corresponding InSight Software (Cytiva) for analysis. […] Unbound antibodies were washed off with 1×HBS-P buffer. […] Dissociation time was set to 600 seconds to allow for elongated fitting model. Chip was regenerated with two cycles of 4.5M MgCI2 solution. […] Affinity of antibodies were reported in molar concentrations as ratio of dissociation and association.

hMPV106 = molecular target: T19, hMPV106 (hMPV B, UniProt Q6WB98 19-102); assay: BLI, 53C stress
T19 construct: T49I
Description: (§5) All measurements were conducted at 30° C. temperature in 96-well black plates (Corning, Corning, NY) with a final volume of 240 μL per well at a constant agitation rate of 1000 RPM.
as §1

hMPV107 = molecular target: T20, hMPV107 (hMPV B, UniProt Q6WB98 19-102); assay: BLI, 53C stress
T20 construct: S149T
Description: as §5, §1

hMPV101 = molecular target: T21, hMPV101 (hMPV B, UniProt Q6WB98 19-102); assay: BLI, 53C stress
T21 construct: A140C-S149C
Description: as §5, §1

hMPV100 = molecular target: T22, hMPV100 (hMPV B, UniProt Q6WB98 19-102); assay: BLI, 53C stress
T22 construct: T411C-Q434C
Description: as §5, §1

hMPV103 = molecular target: T23, hMPV103 (hMPV B, UniProt Q6WB98 19-102); assay: BLI, 53C stress
T23 construct: E146C-T160C
Description: as §5, §1

hMPV104 = molecular target: T24, hMPV104 (hMPV B, UniProt Q6WB98 19-102); assay: BLI, 53C stress
T24 construct: A459P
Description: as §5, §1

hMPV105 = molecular target: T25, hMPV105 (hMPV B, UniProt Q6WB98 19-102); assay: BLI, 53C stress
T25 construct: G239A
Description: as §5, §1

hMPV102 = molecular target: T26, hMPV102 (hMPV B, UniProt Q6WB98 19-102); assay: BLI, 53C stress
T26 construct: L141C-A161C
Description: as §5, §1

hMPV B F WT Control = hMPV B F WT Control (hMPV B, UniProt Q6WB98 19-102); assay: BLI, 53C stress
Description: as §5, §1

hMPV108 = molecular target: T27, hMPV108 (hMPV B, UniProt Q6WB98 19-102); assay: BLI, 53C stress
T27 construct: T365I
Description: as §5, §1

PIV1069 = molecular target: T28, PIV1069 (PIV1); assay: BLI, 53C stress;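 note: binding of thermally stressed PIV1 F mutant supernatant to mAb on AHC biosensors for 5 min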
T28 construct: F113G, F114S, A466L, S473L, G134A
Description: as §2
Conformation integrity of PIV1 F protein mutants were evaluated by a thermal stress experiment. Crude cell culture supernatants were normalized based on the results of the titer quantitation and then incubated for 1 hour at room temperature and two higher temperatures. For the initial testing of PIV1 mutants, the two temperatures were 50° C. and 53° C. […] Anti-Human IgG Fc Capture (AHC) biosensors were first equilibrated in PB for before being dipped into more PB to establish the initial baseline. […] The mAb-bound biosensors were then dipped into the thermal stresses cell culture supernatants for 5 minutes.

[2] = molecular target: T29, stabilized hPIV1 F protein trimer in pre-fusion conformation (human parainfluenza virus 1); assay: SPR (Biacore 8K+), mAb captured on Protein A chip
T29 construct: also called preF-hPIV1; HPIV1 pre-fusion F protein
Excerpt: as §4

B1: hMPV-2 mAb (antibody, V domains shown)
VH: QVQLQQSGAEVKKPGASVKVSCKASGYTFTSYGISWVRQAPGQGLEWMGWISGYNGNTNYAQTFQGTFTMTTDTSTSTAYMELRRLRSGDTAVYYCARDRYYASGSYNGMDVWGQGTTVTVSS
VL: QSALTQPPSASGAPGQRVTVSCSGSSSNVGSSSVYWYQQLPGTAPKLLIYRNNQRPSGVPDRFSGSKSGTSASLAISGLRSEDEADYYCAAWDDSLSGWVFGGGTKLTVLG
notes: human IgG1
Response Shift (hMPV119): 0.017 nm
Response Shift (hMPV132): 0.606 nm
Response Shift (hMPV140): 0.747 nm
Response Shift (hMPV120): 0.502 nm
Response Shift (hMPV126): -0.075 nm
Response Shift (hMPV090): 0.77 nm
Response Shift (hMPV087): 0.763 nm
Response Shift (hMPV082): 0.804 nm
Response Shift (hMPV078): 0.769 nm
Response Shift (hMPV079): 0.736 nm
Response Shift (hMPV086): 0.735 nm
Response Shift (hMPV088): 0.492 nm
Response Shift (hMPV097): 0.905 nm
Response Shift (hMPV081): 0.804 nm
Response Shift (hMPV083): 0.822 nm
Response Shift (hMPV A F WT Control): 0.015 nm
Response Shift (hMPV085): 0.076 nm
Response Shift (hMPV084): 0.183 nm
Kd [1]: 0.685 nM
Response Shift (hMPV106): 0.828 nm
Response Shift (hMPV107): 0.846 nm
Response Shift (hMPV101): 0.716 nm
Response Shift (hMPV100): 0.854 nm
Response Shift (hMPV103): 0.588 nm
Response Shift (hMPV104): 0.336 nm
Response Shift (hMPV105): 0.785 nm
Response Shift (hMPV102): 0.572 nm
Response Shift (hMPV B F WT Control): 0.418 nm
Response Shift (hMPV108): 0.802 nm

B2: PIV1-8 mAb (antibody, V domains shown)
VH: QVQLVQSGAEVKKPGSSVKVSCEASGGTFSNYVISWVRQAPGQGLEWMGGIIPVFATAKYAQKFQGRVTIIADQSTNTAYLELSSLRSDDTAVYFCASVDSGGTWWDAFAIWGQGTMVTVSS
VL: QAVVTQPRSVSGSPGQAVTISCTGTSSDVGGYNYVSWYQHHPGKAPKLIIYDVTKRPSGVPDRFSGSKSGNTASLTISGLQTEYEADYYCCSYAGSYTLVFGGGTKLTVLG
notes: human IgG1; also called hPIV1-8 mAb; hPIV1-8
Response Shift (PIV1069): 0.847 nm
Kd [2]: 0.885 nM
